According to the NTF2 design screens of Basanta et al. (2020):

Test: protease stability score; higher = more stable; yeast display proteolysis, trypsin and chymotrypsin;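 note: relative to predicted unfolded state with 0 unfolded-like and 1 meaning tenfold more protease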

Q: With “SEEEELIEYILELWMHAYVTGDEDVVHEMADPNVRIQVGDKKFIGRKTFSETIHELLNRVDHFRLHIRDYKVINGKAIMHIELHYRVNGKDIHHHVDIDVHKINGRWIVKSIHYR” as the sequence, how does the protease stability score read?
A: Its protease stability score is 1.83.

Q: Which protease stability score does the source give for “DETEEDVREAIRKMLHSTRTGDEEDNKKLMDPNVQIDIDGVKYHGWETWVEHMRRVDHLRMKIHSIEVQGNKLIVDGELDQRFNGVQLRFRSELILVKIDGRWLVHSIHFK” here?
A: The protease stability score was 1.17.

Q: For “KEHNDALELMYHWLIHLWKTGDERDIYELFDPNVRVDVNGRELHGMELVSHIELREMKRLGFKVIHIELTSVRYIGDKIEIDTIFHLHVGEYTERREHHILSYKVDGRWFVKESEVN”, which protease stability score is on record?
A: Its protease stability score is 1.18.

Q: Which protease stability score does the source give for “SEEEELFEIAIRIFLHILHTGNEEDFHRFADPNMRMIIGDKEHHGWEEVFKWFEFVFRHARIKDTEIKSVRIINGRVHNEGRVNININGVEVIKEVHLVSEKVDGKWVLKRVEIR” here?
A: The protease stability score was 1.52.

Q: Which protease stability score does the source give for “DEEKEDNKHFLKIHREDLHTGNEDSLKRLADPNARIHIGDKDYHGWEFWLTLSRELGVDHMHLIIDHVDLQGEKARIEGELEFTVGDKKHRIKTRLILEKIDGVWVYKSVTIE” here?
A: The protease stability score was 1.04.

Q: With “REEDHRSRHLSELWIHLWETGDEETMKKLADPNMRINVNGQEFHGREQATRHIHEFLEKFKNVRLHVENIRIQGEKILIISRAEVDGQELEIHIELIIVDGRIEEVNLHVYRR” as the sequence, how does the protease stability score read?
A: The protease stability score was 1.46.

Q: Which protease stability score does the source give for “HHDEELSEHMAHNWLEALLTGDEDMLRELADPHVRYRFNGRQEIGWEHLLRFVNEIRIHELEPRHIQIDLVNGQVHVHIEGTIDGRIGDKDDRRRTTIVLNIRKINGKWILESISMEVE” here?
A: Its protease stability score is 1.68.

Q: With “DEEQEILKEMAKEILHMLQTGDWKRFLELADPNVKNIVNGREVHGREIVVEYIRKMGIDHHILHDVHIQGDKIHIHGTLEVNGKRIEVEIEIVVVNGRVKMIIFILK” as the sequence, how does the protease stability score read?
A: Its protease stability score is 2.05.

Q: With “SEDEETLSEAIRLLLESLQTGDWRTFDKLIDPHARLVIDGKELHGRDLITTLLTHWRVEHFKIRHIEVQGEKVRIEGEVRGDIDGRKKDTHVRLTAEKINGRWLTQIVIIH” as the sequence, how does the protease stability score read?
A: The protease stability score was 1.98.

Q: Which protease stability score does the source give for “DEEHEMAKRASEKFVKDWVTGNFEVLRENLDPHVRLDINGVKVHGRELVWHYIAKRLRFMGVDHTEMEVHHREVQGNKLITDMEERIHVGDYHEERRVVLISQKINGKWLVKSIHEE” here?
A: The protease stability score was 1.56.

Q: With “SEEEKYFEHWLKILLQNMHTGNEENLKRLADPTYRLHIGDKNFIGREMFLDSMRRIDHFDDAKLKSIETYGDYVHAEIDHDGRVDGRKIRVNTILLTLKVDGRWIVHSFKIE” as the sequence, how does the protease stability score read?
A: Its protease stability score is 0.827.

Q: For “SDEQEISEFILRIWLELVLTGDEKMMKKLFDPNTRFEINGVDIHGMESIAEHLLREREEWRSHITLTDREIQGDKVRVHTILKVDINGQHLRHHTRIIIIIINGRIHSIHIRVE”, which protease stability score is on record?
A: The protease stability score was 0.673.

Q: For “DEEEEISRRIVKLLIELFETGDEEKWKELADPDARVDIDGVDSVGRKHAIHLLHEWKEQLGFKHHRIHSIHVYGEFIDVDGLLIVNGRKIRIHFHFIVVNGRLKEQRLHIE”, which protease stability score is on record?
A: Its protease stability score is 1.3.

Q: Which protease stability score does the source give for “DESEERSRHATELFIRAIHTGDEHTLMNLLDPHVRTHYGDKEVHGRENVVKVMLELLHKLGADHVRWEYHDFKDINGRLHMDWRLHVVVGDKELTLQTHIITEKINGRWHSKYMEIR” here?
A: Its protease stability score is 0.183.

Q: For “TEDDRIFKEALELWVFAMNTGDERILFEMVDPHVRFVIGDKEYHGMEWRHKVLIELRIHRVRLEITHRDQFNGRIHIDGILQIDGEFNGRRDKTETEVRVTYTKFDGKWYYKEVIHL”, which protease stability score is on record?
A: Its protease stability score is 1.44.

Q: For “DEEERSFELALRLLERTIKTGNEDDWRRMLDPHTKIIIGDKEFHGMEDAEKILREHIHRIDHFHDIHLHRIRVQGDKIHMDVRLDGRINGRRDILIARFTVVKVDGRWVIHQVESH”, which protease stability score is on record?
A: Its protease stability score is 1.22.

Q: Which protease stability score does the source give for “DEDKESAKTLVELLVEVLSTGDWKELLHLMDPNTRININGREVHGWHSMHELLRRMIEELRIKRLHLTEVRAQGDKVHVSSKMRVNIDGQDRLTQTHIDVHVFDGVIKTWTMHIE” here?
A: The protease stability score was 1.01.

Q: Which protease stability score does the source give for “REKDDEMDRIVKIFYHVLRTGNEELLDTLIDPDTRIEVDINGVNYISHGREEWKRVIEELLRHMRINSIIIHDIRYQGNKATIDNHADLEFDGVRFEMRSELRIIVVNGRYRSFSRIIR” here?
A: Its protease stability score is 1.13.

Q: For “DEIENLIVKLAMDFIKDEITGDEERLRHLADPHTRHHIGDKHFHGMELIMKHWKTMADRFDHLEVRLEHVRVQGDKVDVHGHIIEEYNGKRIEHHIRLNVEIVDGRVTRYHVKID”, which protease stability score is on record?
A: Its protease stability score is 1.32.

Q: For “GEEDEEFSKLMDETVKSLQTGDETHLKKLLDPNVILHVGDKEFHGRERAIDWYRHLRIHDMTIHHWEIQGDKAHVDGKLHVEVDGQHYDAKLHIVLEKINGQWYITSIHYK”, which protease stability score is on record?
A: Its protease stability score is 2.06.

Q: Which protease stability score does the source give for “DEKHELTKRLVELFLHAMHTGNEDLLHEYMDPNVKLVVNGQEHHGRELANSVIRRMIEELRLKDSKIKDIEFQGEKVHLDVHLHFRQGDKHITLDARIILLKVDGRWVIESLIFH” here?
A: Its protease stability score is 1.76.

Q: Which protease stability score does the source give for “DEERDEARRVLEIFIKVFRTGDWHILHELADPHVRMDVNGREFIGREDYVKFFRYEMEIFGVERIDIKIHDVHVYNGRIEVHTRQNINGKERDTHLEIHKINGQWHLRDVRIH” here?
A: The protease stability score was 1.44.

Q: With “SEDDERMKKLLSDIWRLLMTGDEELWAKLADPNVRVDVNGRERHGREEVVKLLRELRHERRGRREEHHTVEDFRIYGDYSEVDYRYWVVFNGQREDVTMHIHIQVVNGRLKEIEIKMR” as the sequence, how does the protease stability score read?
A: Its protease stability score is 1.51.

Q: Which protease stability score does the source give for “DEDEEKLKEFRDVLLHAISTGDEETIKTLVDPHVRIEIDGKERHGRDKVTKLFRDLGVDHVRLTEVSIIGDKLHLDLRLRYGDKERTMIWIISKINGRWLIHTVETH” here?
A: Its protease stability score is 1.15.

Q: With “DEWEEWLKAILEELRRISHTGDEDEIINNADPNVKIKIGDKLIIGREEFRRIMLELSKHFGITRFEFELHDRRIVGDKIHLDGTSRFNGVDERTTLIIMKVNGRWILRSMHVE” as the sequence, how does the protease stability score read?
A: Its protease stability score is 1.41.

Q: Which protease stability score does the source give for “HEEERDAEKLIRIWYHYLVTGDEERLLELLDPSTRMDINGVTHHGMEIVRDALHDLLRHLGVKVFRDIHIESVEIQGEKVITRMHVLFEVDGQELRIDSILFSHKINGKWLIEMHSKK” here?
A: The protease stability score was 1.23.

Q: With “SEDEEMAKESVEHVIHALETGDFELFHKMADPSVQLDIDGREFIGWEEVRKHLEELRIERVHIRRLHIELINGQVRSTSDIEMDIRIGDYKIRTEVKVHIIIDKVNGRWRLRSMKIINH” as the sequence, how does the protease stability score read?
A: Its protease stability score is 1.57.

Q: Which protease stability score does the source give for “DEEKDIMERIADLMLELSETGDEHTYKRMADPNVRLRFNGVDIHGMDNISKYLKEFFERIDHVEFEIKDFRSFDGRYNNRGLLILNVGDKRIIIDITIRVEVVNGRVKERQVDID” here?
A: Its protease stability score is 0.749.

Q: For “SEEERRDEHLMRLWVHLLLTGDEDTLKKLADPDARLVVGDKTFHGMEEVSRIMHEFLRRLGIKHFHDLDFKHVRHINGVAHFNGRLHGIQGEFERNTNIEFVVVVVDGRIKSSEIHWH”, which protease stability score is on record?
A: The protease stability score was 1.41.

Q: With “DESRESLEEALKIYIHDIKTGDEKSLTELADPNARLNFNGRWHHGREMVTKWMSEMRLHDFKLHELDVQGDKVHIRGEIFFEIDGRVIRSEIHIVMIKINGRWLLHSMHVE” as the sequence, how does the protease stability score read?
A: Its protease stability score is 1.17.

Q: Which protease stability score does the source give for “SEDEHHIERMLKLFVKAVKTGDEDTLVKLLDPHARLHIGDKDHHGWEDIYKHEHELGLDRVEMDIHRIHLQGDKINVDGTLFIDGKHIEVVIYAKKVNGRWFVETREIR” here?
A: The protease stability score was 1.22.

Q: With “DHTKKMAEEALRDFWRDFRTGDEDSLNKMADPNVRILIGDKEVVGRERMVELFREVLKKYKNARVITDIEDLDDQGNWVHSDVRFHLHVGDKTVDIEREIVMRKVNGRWYIETHVVK” as the sequence, how does the protease stability score read?
A: The protease stability score was 0.397.

Q: With “DEDEHHSELASRLMHETTRTGDETSFLNLADPDTRLDINGREFIGREEWVKFFHKWSKHLGAKVIDTRFNDLRVIDGRIKLDMEYIVHVGDKTMHHKMIVFALKVNGRWHLESLKFE” as the sequence, how does the protease stability score read?
A: Its protease stability score is 0.436.

Q: For “DEEEERMQEKLHRYLHDLVTGDEEEFHKYADPHVKTRVGDKILHGREKAREFWHEIRIKDIKLDHKDIQGDFVRLHVRVHGRINGQDIDFRVEIFFRKINGRWIIESQEIN”, which protease stability score is on record?
A: The protease stability score was 0.816.

Q: With “DHDKEYADRSIELWLKSHETGDEELVMRLADPHARVYVGEYEDHGREMVMIMLRVLGVDHYSVRSWHVQGDKVSITGELQVGDKKFRSHLTVRKVNGRWLLSEVRIG” as the sequence, how does the protease stability score read?
A: Its protease stability score is 1.16.

Q: For “DKEEEKSREFFRIFYELWLTGNEELNERLADPNVYVDINGQEIHGMHVAKNVLTRELEELRVKDIKIDDYKTQGEKAVFHGKWEGYVDGRDSMEHVTVILTVVDGKVDNMSIKFD”, which protease stability score is on record?
A: The protease stability score was 0.97.
